Test results taken from PMC4954775.

Substrate: Cc1cc(=O)oc2cc(O[C@@H]3O[C@@H](C(=O)O)[C@@H](O)[C@H](O)[C@H]3O)ccc12
Assay: purified protein

Protein	Km [µM]
α-L-iduronidase (IDUA) (Homo sapiens) (protein) APHLVHVDAARALWPLRRFWRSTGFCPPLPHSQADQYVLSWDQQLNLAYVGAVPHRGIKQVRTHWLLELVTTRGSTGRGLSYNFTHLDGYLDLLRENQLLPGFELMGSASGHFTDFEDKQQVFEWKDLVSSLARRYIGRYGLAHVSKWNFETWNEPDHHDFDNVSMTMQGFLNYYDACSEGLRAASPALRLGGPGDSFHTPPRSPLSWGLLRHCHDGTNFFTGEAGVRLDYISLHRKGARSSISILEQEKVVAQQIRQLFPKFADTPIYNDEADPLVGWSLPQPWRADVTYAAMVVKVIAQHQNLLLANTTSAFPYALLSNDNAFLSYHPHPFAQRTLTARFQVNNTRPPHVQLLRKPVLTAMGLLALLDEEQLWAEVSQAGTVLDSNHTVGVLASAHRPQGPADAWRAAVLIYASDDTRAHPNRSVAVTLRLRGVPPGPGLVYVTRYLDNGLCSPDGEWRRLGRPVFPTAEQFRRMRAAEDPVAAAPRPLPAGGRLTLRPALRLPSLLLVHVCARPEKPPGQVTRLRALPLTQGQLVLVWSDEHVGSKCLWTYEIQFSQDGKAYTPVSRKPSTFNLFVFSPDTGAVSGSYRVRALDYWARPGPFSDPVPYLEVPVPRGPPSPGNP	27.0 ± 2.3
α-L-iduronidase (IDUA) (Homo sapiens; P533R) (protein) APHLVHVDAARALWPLRRFWRSTGFCPPLPHSQADQYVLSWDQQLNLAYVGAVPHRGIKQVRTHWLLELVTTRGSTGRGLSYNFTHLDGYLDLLRENQLLPGFELMGSASGHFTDFEDKQQVFEWKDLVSSLARRYIGRYGLAHVSKWNFETWNEPDHHDFDNVSMTMQGFLNYYDACSEGLRAASPALRLGGPGDSFHTPPRSPLSWGLLRHCHDGTNFFTGEAGVRLDYISLHRKGARSSISILEQEKVVAQQIRQLFPKFADTPIYNDEADPLVGWSLPQPWRADVTYAAMVVKVIAQHQNLLLANTTSAFPYALLSNDNAFLSYHPHPFAQRTLTARFQVNNTRPPHVQLLRKPVLTAMGLLALLDEEQLWAEVSQAGTVLDSNHTVGVLASAHRPQGPADAWRAAVLIYASDDTRAHPNRSVAVTLRLRGVPPGPGLVYVTRYLDNGLCSPDGEWRRLGRPVFPTAEQFRRMRAAEDPVAAAPRPLPAGGRLTLRPALRLRSLLLVHVCARPEKPPGQVTRLRALPLTQGQLVLVWSDEHVGSKCLWTYEIQFSQDGKAYTPVSRKPSTFNLFVFSPDTGAVSGSYRVRALDYWARPGPFSDPVPYLEVPVPRGPPSPGNP	35.3 ± 3.66
